According to PMC3107500 (2011):

T1: PITPNM3 (Homo sapiens, UniProt Q9BZ71)
T1 chain: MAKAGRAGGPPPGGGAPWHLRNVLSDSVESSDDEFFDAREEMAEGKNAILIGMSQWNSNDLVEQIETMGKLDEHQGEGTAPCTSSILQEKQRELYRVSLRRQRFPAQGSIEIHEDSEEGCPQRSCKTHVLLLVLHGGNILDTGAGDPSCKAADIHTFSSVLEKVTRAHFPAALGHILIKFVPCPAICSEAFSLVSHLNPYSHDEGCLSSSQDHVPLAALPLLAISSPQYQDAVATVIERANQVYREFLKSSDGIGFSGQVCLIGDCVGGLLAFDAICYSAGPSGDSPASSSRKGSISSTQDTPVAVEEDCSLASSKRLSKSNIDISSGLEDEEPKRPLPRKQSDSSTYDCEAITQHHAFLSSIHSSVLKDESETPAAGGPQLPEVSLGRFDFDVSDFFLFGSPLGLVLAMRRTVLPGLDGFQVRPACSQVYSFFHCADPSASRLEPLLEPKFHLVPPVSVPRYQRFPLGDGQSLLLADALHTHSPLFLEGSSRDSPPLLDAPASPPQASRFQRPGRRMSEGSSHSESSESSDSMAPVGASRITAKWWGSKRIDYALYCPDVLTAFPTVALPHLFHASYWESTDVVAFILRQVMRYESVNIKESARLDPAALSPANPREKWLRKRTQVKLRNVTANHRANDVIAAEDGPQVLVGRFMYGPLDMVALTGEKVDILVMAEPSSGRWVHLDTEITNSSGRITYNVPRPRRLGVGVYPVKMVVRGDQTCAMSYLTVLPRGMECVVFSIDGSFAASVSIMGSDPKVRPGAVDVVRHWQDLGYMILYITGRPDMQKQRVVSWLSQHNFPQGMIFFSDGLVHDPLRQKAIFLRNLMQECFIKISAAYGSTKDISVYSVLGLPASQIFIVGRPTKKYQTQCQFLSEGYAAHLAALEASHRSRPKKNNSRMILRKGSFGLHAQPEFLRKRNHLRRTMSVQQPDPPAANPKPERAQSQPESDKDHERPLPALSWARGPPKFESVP


Target: T1, PITPNM3
Test: 125I-CCL18 radioligand competition binding on PITPNM3-transfected HEK293 cells

| Kd | Binder |
| --- | --- |
| 277 nM | CCL3 (protein) SLAADTPTACCFSYTSRQIPQNFIADYFETSSQCSKPGVIFLTKRSRQVCADPSEEWVQKYVSDLELSA |
| 833 nM | CCL4 (protein) APMGSDPPTACCFSYTARKLPRNFVVDYYETSSLCSQPAVVFQTKRSKQVCADPSESWVQEYVYDLELN |
| 5.17 nM | CCL18 (protein) GTNKELCCLVYTSWQIPQKFIVDYSETSPQCPKPGVILLTKRGRQICADPNKKWVQKYISDLKLNA |
